Reference: article doi:10.1101/2025.07.23.666440

Biological target: PANA_2924 C-terminal domain after TEV cleavage of the His-TEV tag (Pantoea ananatis LMG 20103) (UniProt D4GKQ2)
Assay: SEC

## PANA_2923 immunity protein (natural protein)
  stoichiometry N: 1
